Assays:
Format in all cases: cell-based, human
citrated whole blood [1] = assay: T2In T2MR clotting time, intrinsic pathway activator (ellagic acid); details: T2In, 3 donors, different tPA concentrations, with or without aprotinin
Source text: In another embodiment a coagulopathy panel is used with an intrinsic activator such as ellagic acid. The common range of clotting time is often between 100 and 120 seconds for normal blood. However, it can be 22-30 seconds, 30-44 seconds, 44-60 seconds, 60-80 seconds, 80-100 seconds, up to 2 times to 4 times the range of normal T2MR clotting times for the extrinsic activator. The abnormal clotting time ranges are above or below the normal range. The total range easily measured is 8-300 seconds though a measurement up to or beyond 1000 seconds could be performed with modified acquisition. If aprotinin is added in addition to intrinsic activator, clotting times can often be from 110.9-151.0 seconds in normal blood.
The general intrinsic activator protocol is as follows (T2In panel): an intrinsic activator solution was prepared by mixing tissue factor reagent with CaCl2. To 36.7 μL of citrated whole blood (warmed to approximately 37° C. for 3 minutes and mixed) was added 5 μL of the intrinsic activator solution (also been warmed to approximately 37° C. for one minute). The resulting solution was mixed and subjected to T2 measurements for 50 minutes. […] The T2MR of the sample was measured for 30 minutes.
The T2Ex or the T2In protocols were also used with the addition of aprotinin (T2Ex-A and T2In-A) respectively. […] The sample was mixed and read in the T2reader. […]

citrated whole blood [2] = assay: T2In platelet activity and fibrinolysis measurement with tPA or aprotinin; details: ellagic acid with CaCl2; tPA 0, 2 or 4 nM or aprotinin control; 65 min
Method: The T2Ex or the T2In protocols were also used with the addition of aprotinin (T2Ex-A and T2In-A) respectively. For the intrinsic pathway measurement (T2In), intrinsic activator solution was prepared by mixing ellagic acid stock and CaCl2. For the intrinsic pathway measurement that includes aprotinin (T2In-A), add 41.7 μL of a 1 mg/mL stock of aprotinin to 1 mL intrinsic activator solution. 36.7 μL citrated whole blood that had been warmed to approximately 37° C. for three minutes was added and mixed. 5 μL of intrinsic activator solution with aprotinin that had been warmed to approximately 37° C. for one minute was added. The sample was mixed and read in the T2reader. The clotting time measurement was obtained after 5 minutes and then the platelet activity and fibrinolysis measurements were obtained over the following 60 minutes. In a separate assay the effects of the amounts of activator were tested.
Platelet activity and fibrinolysis measurements for the 3 donor samples in the T2In assay are shown in FIG. 15a-15b. tPA levels of 0 nM, 2 nM or 4 nM were added to citrated whole blood. Blood samples (36.7 μL) were activated by addition of 5 μL ellagic acid solution with CaCl2. T2MR data was collected for 65 min. The addition of tPA cleaves the fibrin mesh of the clot and results in clot dissolution over time. This is detected by T2MR by the change in T2 value of the serum peak (third phase). […]

[3] = tested on: re-calcified citrated whole blood; assay: T2MR fibrinolysis of thrombin-clotted re-calcified citrated blood after tPA addition
Method: In one embodiment, blood clotting was initiated by addition of 2 μL of a 0.2 M CaCl2 solution and 2 μL of thrombin (Sigma-Aldrich, St. Louis, Mo., final concentration 0.1-3.0 U/ml) to 34 μL of blood in a 200 μL PCR tube (Eppendorf, Hauppauge, N.Y.). All components were pre-warmed for 1 min at 37° C. before mixing. Samples were mixed by three aspiration and dispersion cycles using a pipette, then put into the T2MR reader for measurement. Typical run length was 30 min with a 10 sec sampling rate. For some experiments, data collection time was extended to 1 hr.
To establish T2MR signatures for fibrinolysis, tissue plasminogen activator (tPA, Alteplase, Genentech, South San Francisco, Calif.) was added to samples clotted by thrombin. Blood clotting was initiated as described above, and the sample was incubated for […] to allow for complete clot contraction. Then, 0.5-1 μM tPA was added to clotted and contracted samples. Care was taken not to disturb clots, which were usually attached to the tube wall. The pipette tip was carefully placed into the visible serum layer on the tube side opposite to the contracted clot, and 3 μL of tPA solution was added with a single dispensing of the pipettor. The tPA solutions were made from a stock solution prepared according to manufacturer instructions using 0.15 M sodium chloride, pH 7.4.
In one embodiment, the dependencies of the T2MR signals during clotting of re-calcified citrated blood samples from healthy donors initiated by adding 3 U/ml thrombin was measured. Thrombin activates platelets and cleaves fibrinogen to form a three-dimensional fibrin network stabilized by factor XIIIa. Addition of thrombin led to rapid formation of a gelatinous meshwork that filled the sample volume accompanied by a small, rapid decrease in the T2MR signal over tens of seconds due to the sample transitioning from a liquid to gel state. In the initial gel state, only one relaxation rate was observed (FIG. 2, part a), reflecting uniform distribution of erythrocytes and other blood components. Approximately four minutes after thrombin addition, the T2MR signal split into two peaks representing distinct water populations in slow exchange with each other. […]
We then assessed the sensitivity of the T2MR platform to fibrinolysis by adding tissue-type plasminogen activator (tPA) to the clotted samples 30 minutes after thrombin.
The compartment generating the signal in FIG. 2, part b, at 300 ms that dropped to 200 ms was assessed by testing two conditions: (1) re-calcified citrated whole blood activated with thrombin to form a contracted clot and (2) re-calcified citrated whole blood activated with thrombin followed by addition of tPA. After incubation, samples were analyzed before and after mixing with a pipette to re-suspend unbound erythrocytes. […]

citrated blood [4] = assay: T2MR clot strength (DiffT2), calcium and kaolin activation of abciximab-treated citrated blood; details: abciximab 4 or 8 μg/ml added ex vivo; 13 minutes after activation; 3 healthy donors
Method: (§1) The DiffT2 value was calculated by taking the difference between the upper and middle T2 values in the T2MR signature at a time point 13 minutes after activation. Data are shown here using samples from 3 healthy donors where clot strength was adjusted by ex vivo addition of abciximab (ReoPro) at a level of 0, 4, or 8 μg/ml prior to measurement. All samples containing abciximab were at DiffT2 values of <100 ms or TEG MA values less than 40.
(§2) A 0.5 mg/ml solution of abciximab was prepared by diluting the stock 10 mg/5 ml solution by 1:4 in saline. The abciximab-treated blood samples were incubated for at least 5 min prior to clotting. Clotting was initiated by adding 2 μL 0.2 M CaCl2 and 2 μL TEG kaolin to 34 μL of abciximab-treated blood sample. To compare the T2MR signal to TEG MA, a DiffT2 parameter was calculated by taking the difference in T2 between the upper and middle peaks at a time point 13 min after adding calcium and kaolin. The TEG MA values were measured on the same samples following manufacturer instructions.
(§3) For comparison between T2MR and TEG, calcium and kaolin activation of citrated blood was used and normal donor samples were treated with various amounts of abciximab, an inhibitor of the platelet glycoprotein αIIbβ3 receptor that binds fibrin and is essential for clot contraction.

citrated blood [5] = assay: Thromboelastography maximum amplitude (TEG MA) on the same abciximab-treated samples; details: abciximab 4 or 8 μg/ml added ex vivo; 3 healthy donors
Method: as §1, §2, §3

citrated whole blood [6] = assay: T2In intrinsic assay for platelet activity, ReoPro titration
Method: Citrated whole blood from normal donors was spiked with varying concentrations of the platelet inhibitor ReoPro (Abcixirnab). 5 μL of ellagic acid solution with CaCl2 was used to activate 36.7 μL of blood with or without ReoPro inhibition. T2MR data was collected for 35 minutes. Addition of platelet inhibitor had no effect on T2MR measured clot time or % deltaT2. […] There was some donor to donor differences in responsiveness to ReoPro.

[7] = tPA added 30 minutes after thrombin
[8] = ellagic acid with CaCl2, varying ReoPro concentrations

Molecule | clotting time curves (% deltaT2) (citrated whole blood [1]) | change in T2 value of the serum peak (third phase) (citrated whole blood [2]) | 200-300 ms signal after mixing ([3]; clotted with thrombin then lysed with tPA, mixed with a pipette) | T2 value of the upper peak after tPA addition [3, 7] | third peak at ~100 ms after tPA addition [3, 7] | T2 value of the middle peak after tPA addition ([3]; tPA added 30 minutes after thrombin, decreased from 250) | DiffT2 (citrated blood [4]) | TEG MA (citrated blood [5]) | effect on % deltaT2 (citrated whole blood [6]; [8]) | effect on T2MR measured clot time (citrated whole blood [6]; [8]) | platelet activity measurement (FIG. 27) (citrated whole blood [6]; intrinsic activator, 5 μg/mL and 10 μg/mL ReoPro)
tPA: tissue plasminogen activator (tPA, Alteplase, Genentech), inducer of fibrinolysis (protein, UniProt P00750 36-562, looked up, alteplase) Tissue-type plasminogen …: SYQVICRDEKTQMIYQQHQSWLRPVLRSNRVEYCWCNSGRAQCHSVPVKSCSEPRCFNGGTCQQALYFSDFVCQCPEGFAGKCCEIDTRATCYEDQGISYRGTWSTAESGAECTNWNSSALAQKPYSGRRPDAIRLGLGNHNYCRNPDRDSKPWCYVFKAGKYSSEFCSTPACSEGNSDCYFGNGSAYRGTHSLTESGASCLPWNSMILIGKVYTAQNPSAQALGLGKHNYCRNPDGDAKPWCHVLKNRRLTWEYCDVPSCSTCGLRQYSQPQFRIKGGLFADIASHPWQAAIFAKHRRSPGERFLCGGILISSCWILSAAHCFQERFPPHHLTVILGRTYRVVPGEEEQKFEVEKYIVHKEFDDDTYDNDIALLQLKSDSSRCAQESSVVRTVCLPPADLQLPDWTECELSGYGKHEALSPFYSERLKEAHVRLYPSSRCTSQHLLNRTVTDNMLCAGDTRSGGPQANLHDACQGDSGGPLVCLNDGRMTLVGIISWGLGCGQKDVPGVYTKVTNYLDWIRDNMRP | appear to overlay | larger change | disappeared altogether | decreased rapidly | persisted | 175 ms | – | – | – | – | –
abciximab (antibody, chains of the INN, looked up, V domains shown, Fab) VH: EVQLQQSGTVLARPGASVKMSCEASGYTFTNYWMHWVKQRPGQGLEWIGAIYPGNSDTSYIQKFKGKAKLTAVTSTTSVYMELSSLTNEDSAVYYCTLYDGYYVFAYWGQGTLVTVSA VL: EIVLTQSPVTLSVTPGDSVSLSCRASRDISNNLHWFQQTSHESPRLLIKYASQSMSGIPSRFSGSGSGTDFTLSINSVETEDFGMYFCQQTNSWPYTFGGGTKLEIK | – | – | – | – | – | – | < 100 ms | less than 40 | no effect | no effect | inhibition of platelet activity

— patent US20180188195A1, “SYSTEMS AND METHODS FOR MULTIPLEXED HEMOSTASIS TEST PANELS” (T2 Biosystems, Inc., priority 2015, published 2018)
